Results as given in article PMC8263776, “Calmodulin-dependent KCNE4 dimerization controls membrane targeting” (Scientific Reports, 2021).

B1: KCNE4-CFP [mouse] / KCNE4-YFP [mouse] (parent)
chain 1: MLRMEPLNSTYPSAAASSSPLESHVPSNSSGNGNEYFYILVVMSFYGVFLIGIMLGYMKSKRREKKSSLLLLYKDEERLWGEAMKPLPMMSGLRSGQVPMMLNMLQESVAPALSCTLCSMEGDSVSSESSSPDVHLPIQEEGADDELEETSETPLNDSSEGSSENIHQNS
chain 2: B1 chain 1

Variants of: B1
Assay: FRET (CFP/YFP) in cells
Conditions: with KCNE4-YFP [mouse]; HEK-293 cells; n > 25 cells; parent: 12; read off a plot

Row | Variant | response
1 | chain 1 L69A L70A L71A L72A | 7.2%
